From patent US12295987B2, “Method of using a GIP/GLP1 co-agonist for diabetes” (Eli Lilly and Company, priority 2018, dated 2025) come the findings set out here.

The target in this experiment is T1, human gastric inhibitory peptide receptor (hGIPR) (Homo sapiens, UniProt P48546).
T1 construct: expressed in transfected cells; host or cells: HEK293
T1 sequence (P48546 22-466): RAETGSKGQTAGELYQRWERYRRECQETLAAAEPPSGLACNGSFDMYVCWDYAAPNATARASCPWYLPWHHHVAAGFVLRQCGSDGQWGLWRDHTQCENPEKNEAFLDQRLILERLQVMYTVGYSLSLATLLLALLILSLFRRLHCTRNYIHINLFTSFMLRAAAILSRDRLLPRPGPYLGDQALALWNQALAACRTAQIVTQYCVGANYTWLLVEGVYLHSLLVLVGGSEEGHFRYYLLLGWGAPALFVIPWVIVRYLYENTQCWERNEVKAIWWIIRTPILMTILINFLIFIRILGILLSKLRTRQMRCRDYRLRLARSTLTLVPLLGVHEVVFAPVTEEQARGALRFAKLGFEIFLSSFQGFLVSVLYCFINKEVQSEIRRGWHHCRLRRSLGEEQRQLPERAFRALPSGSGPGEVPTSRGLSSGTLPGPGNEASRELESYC
The experiment is described as follows: cAMP pharmacological functional assay in presence of 0.1% casein, hGIPR. Conditions: ratio of hGIPR to hGLP1R cAMP EC50 ratios. The class given is cell-based.
Consider “Y-Aib-EGT-αMeF(2F)-TSDYSI-Nle-LD-Orn-K((2-[2-(2-Amino-ethoxy)-ethoxy]-acetyl)2-(γGlu)-CO—(CH2)16—CO2H)AQ-Aib-EFI-(D-Glu)-YLIEGGPSSGAPPPS-NH2 (YXEGTXTSDYSIXLDXKAQXEFIXYLIEGGPSSGAPPPS; Aib, Nle, Orn, αMeF(2F), lipidated Lys, D-Glu, amide; (2)..(2) Xaa at position 2 is Aib; (6)..(6) Xaa at position 6 is alpha-methyl-Phe(2F); (13)..(13) Xaa at position 13 is Nle; (16)..(16) Xaa at position 16 is Orn; MOD_RES (17)..(17) Lys at position 17 is chemically modified by conjugation of the epsilon-amino group of the Lys side chain with (2-[2-(2-amino-ethoxy)-ethoxy]-acetyl)2-(gamma-Glu)-CO-(CH2)16- CO2H; (20)..(20) Xaa at position 20 is Aib;) [Peptide 249]”, for which the “[hGIPR/hGLP1R] EC50 Ratio” value amounted to 4.94.
The figure for “Y-Aib-EGT-αMeF(2F)-TSDYSI-αMeL-LD-Dab-K((2-[2-(2-Amino-ethoxy)-ethoxy]-acetyl)2-(γGlu)-CO—(CH2)16—CO2H)AQ-Aib-EFI-(D-Glu)-YLIEGGPSSGAPPPS-NH2 (YXEGTXTSDYSIXLDXKAQXEFIXYLIEGGPSSGAPPPS; Aib, αMeF(2F), αMeL, Dab, D-Glu; lipidated K; amide; (2)..(2) Xaa at position 2 is Aib; (6)..(6) Xaa at position 6 is alpha-methyl-Phe(2F); (13)..(13) Xaa at position 13 is alpha-methyl-Leu; (16)..(16) Xaa at position 16 is Dab; MOD_RES (17)..(17) Lys at position 17 is chemically modified by conjugation of the epsilon-amino group of the Lys side chain with (2-[2-(2-amino-ethoxy)-ethoxy]-acetyl)2-(gamma-Glu)-CO-(CH2)16- CO2H; (20)..(20) Xaa at positi) [Peptide 209]” is 5.12; for “Y-Aib-EGT-αMeF(2F)-TSDYSI-αMeL-LD-Dab-K((2-[2-(2-Amino-ethoxy)-ethoxy]-acetyl)2-(γGlu)-CO—(CH2)18—CO2H)AQ-Aib-EFI-(D-Glu)-YLIEGGPSSGAPPPS-NH2 (YXEGTXTSDYSIXLDXKAQXEFIXYLIEGGPSSGAPPPS; Aib, αMeF(2F), αMeL, Dab, D-Glu; lipidated K; amide; (2)..(2) Xaa at position 2 is Aib; (6)..(6) Xaa at position 6 is alpha-methyl-Phe(2F); (13)..(13) Xaa at position 13 is alpha-methyl-Leu; (16)..(16) Xaa at position 16 is Dab; MOD_RES (17)..(17) Lys at position 17 is chemically modified by conjugation of the epsilon-amino group of the Lys side chain with (2-[2-(2-amino-ethoxy)-ethoxy]-acetyl)2-(gamma-Glu)-CO-(CH2)18- CO2H; (20)..(20) Xaa at positi) [Peptide 217]” it is 2.99.
For the substance “Y-Aib-EGT-αMeF(2F)-TSDYSI-αMeL-LD-Dap-K((2-[2-(2-Amino-ethoxy)-ethoxy]-acetyl)2-(γGlu)-CO—(CH2)16—CO2H)AQ-Aib-EFI-(D-Glu)-YLIEGGPSSGAPPPS-NH2 (YXEGTXTSDYSIXLDXKAQXEFIXYLIEGGPSSGAPPPS; Aib, αMeF(2F), αMeL, Dap, D-Glu; lipidated K; amide; (2)..(2) Xaa at position 2 is Aib; (6)..(6) Xaa at position 6 is alpha-methyl-Phe(2F); (13)..(13) Xaa at position 13 is alpha-methyl-Leu; (16)..(16) Xaa at position 16 is Dap; MOD_RES (17)..(17) Lys at position 17 is chemically modified by conjugation of the epsilon-amino group of the Lys side chain with (2-[2-(2-amino-ethoxy)-ethoxy]-acetyl)2-(gamma-Glu)-CO-(CH2)16- CO2H; (20)..(20) Xaa at positi) [Peptide 210]”, the “[hGIPR/hGLP1R] EC50 Ratio” value was found to be 5.24.
Then “Y-Aib-EGT-αMeF(2F)-TSDYSI-αMeL-LD-Dap-K((2-[2-(2-Amino-ethoxy)-ethoxy]-acetyl)2-(γGlu)-CO—(CH2)18—CO2H)AQ-Aib-EFI-(D-Glu)-YLIEGGPSSGAPPPS-NH2 (YXEGTXTSDYSIXLDXKAQXEFIXYLIEGGPSSGAPPPS; Aib, αMeF(2F), αMeL, Dap, D-Glu; lipidated K; amide; (2)..(2) Xaa at position 2 is Aib; (6)..(6) Xaa at position 6 is alpha-methyl-Phe(2F); (13)..(13) Xaa at position 13 is alpha-methyl-Leu; (16)..(16) Xaa at position 16 is Dap; MOD_RES (17)..(17) Lys at position 17 is chemically modified by conjugation of the epsilon-amino group of the Lys side chain with (2-[2-(2-amino-ethoxy)-ethoxy]-acetyl)2-(gamma-Glu)-CO-(CH2)18- CO2H; (20)..(20) Xaa at positi) [Peptide 218]”, with 4.34; and “Y-Aib-EGT-αMeF(2F)-TSDYSI-αMeL-LD-Orn-K((2-[2-(2-Amino-ethoxy)-ethoxy]-acetyl)2-(γGlu)-CO—(CH2)16—CO2H)AQ-Aib-EFI (D-Glu)-αMeY-LIEGGPSSGAPPPS-NH2 (YXEGTXTSDYSIXLDXKAQXEFIXXLIEGGPSSGAPPPS; Aib, Orn, αMe residues, lipidated Lys, D-Glu, amide; (2)..(2) Xaa at position 2 is Aib; (6)..(6) Xaa at position 6 is alpha-methyl-Phe(2F); (13)..(13) Xaa at position 13 is alpha-methyl-Leu; (16)..(16) Xaa at position 16 is Orn; MOD_RES (17)..(17) Lys at position 17 is chemically modified by conjugation of the epsilon-amino group of the Lys side chain with (2-[2-(2-amino-ethoxy)-ethoxy]-acetyl)2-(gamma-Glu)-CO-(CH2)16- CO2H; (20)..(20) Xaa at positi) [Peptide 236]”, with 4.10.
Take “Y-Aib-EGT-αMeF(2F)-TSDYSI-αMeL-LD-Orn-K((2-[2-(2-Amino-ethoxy)-ethoxy]-acetyl)2-(γGlu)-CO—(CH2)16—CO2H)AQ-Aib-EFI-(D-Glu)-YLIEGGPSSGAPPPS-NH2 (YXEGTXTSDYSIXLDXKAQXEFIXYLIEGGPSSGAPPPS; Aib, Orn, αMe residues, lipidated Lys, D-Glu, amide; (2)..(2) Xaa at position 2 is Aib; (6)..(6) Xaa at position 6 is alpha-MeF(2F); (13)..(13) Xaa at position 13 is alpha-MeL; (16)..(16) Xaa at position 16 is Orn; MOD_RES (17)..(17) K at position 17 is chemically modified by conjugation of the epsilon-amino group of the K side chain with (2-[2-(2-amino-ethoxy)-ethoxy]-acetyl)2-(gamma-Glu)-CO-(CH2)16- CO2H; (20)..(20) Xaa at position 20 is Aib; (24)) [Peptide 2]”: the “[hGIPR/hGLP1R] EC50 Ratio” value was 6.63.
Then “Y-Aib-EGT-αMeF(2F)-TSDYSI-αMeL-LD-Orn-K((2-[2-(2-Amino-ethoxy)-ethoxy]-acetyl)2-(γGlu)-CO—(CH2)18—CO2H)AQ-Aib-EFI-(D-Glu)-YLIEGGPSSGAPPPS-NH2 (YXEGTXTSDYSIXLDXKAQXEFIXYLIEGGPSSGAPPPS; Aib, Orn, αMe residues, lipidated Lys, D-Glu, amide; (2)..(2) Xaa at position 2 is Aib; (6)..(6) Xaa at position 6 is alpha-MeF(2F); (13)..(13) Xaa at position 13 is alpha-MeL; (16)..(16) Xaa at position 16 is Orn; MOD_RES (17)..(17) K at position 17 is chemically modified by conjugation of the epsilon-amino group of the K side chain with (2-[2-(2-amino-ethoxy)-ethoxy]-acetyl)2-(gamma-Glu)-CO-(CH2)18- CO2H; (20)..(20) Xaa at position 20 is Aib; (24)) [Peptide 3]”, with 3.61; and “Y-Aib-EGT-αMeF(2F)-TSDYSI-αMeL-LDEK((2-[2-(2-Amino-ethoxy)-ethoxy]-acetyl)2-(γGlu)-CO—(CH2)14—CO2H)AQ-Aib-EFI-(D-Glu)-YLIEGGPSSGAPPPS-NH2 (YXEGTXTSDYSIXLDEKAQXEFIXYLIEGGPSSGAPPPS; Aib, αMeF(2F), αMeL, D-Glu; lipidated K; amide; (2)..(2) Xaa at position 2 is Aib; (6)..(6) Xaa at position 6 is alpha-methyl-Phe(2F); (13)..(13) Xaa at position 13 is alpha-methyl-Leu; MOD_RES (17)..(17) Lys at position 17 is chemically modified by conjugation of the epsilon-amino group of the Lys side chain with (2-[2-(2-amino-ethoxy)-ethoxy]-acetyl)2-(gamma-Glu)-CO-(CH2)14- CO2H; (20)..(20) Xaa at position 20 is Aib; (24)..(24) Xaa at positi) [Peptide 208]”, with 9.08.
